According to paper PMC4286236:
Blank lines part the entries; values can stand above or below the substance they belong to.

Key:
Experiment in all cases: AraTM assay
[1] = target: Danio rerio PlxnA3 TM + JM (amino acids 1241-1314) M1281L, AraTM construct; settings: E. coli membranes; minimum of eleven replicates over three experiments; read off a plot
[2] = target: Danio rerio PlxnA3 TM + JM (amino acids 1241-1314) M1281F, AraTM construct; settings: E. coli membranes; minimum of eleven replicates over three experiments; read off a plot
[3] = target: Danio rerio PlxnA3 TM + JM (amino acids 1241-1314) V1288F, AraTM construct (EP-PCR mutant); settings: E. coli membranes; four replicates; read off a plot
[4] = target: Danio rerio PlxnA3 TM + JM (amino acids 1241-1314) L1277F, AraTM construct; settings: E. coli membranes; minimum of eleven replicates over three experiments; read off a plot
[5] = target: Danio rerio PlxnA3 TM + JM (amino acids 1241-1314) L1274A, AraTM construct; settings: E. coli membranes; minimum of eleven replicates over three experiments; read off a plot
[6] = target: Danio rerio PlxnA3 TM + JM (amino acids 1241-1314) M1281T, AraTM construct; settings: E. coli membranes; minimum of eleven replicates over three experiments; read off a plot
[7] = target: Danio rerio PlxnA3 TM + JM (amino acids 1241-1314) D1302Y, AraTM construct (EP-PCR mutant); settings: E. coli membranes; four replicates; read off a plot
[8] = target: Danio rerio PlxnA3 TM + JM (amino acids 1241-1314) L1284A, AraTM construct; settings: E. coli membranes; minimum of eleven replicates over three experiments; read off a plot

other: % change in AraTM fluorescence/absorbance from WT (% change from WT) [3]: 25
Substance: Danio rerio PlxnA3 TM + JM (amino acids 1241-1314), wild type, AraTM construct V1288F

other: % change in AraTM fluorescence/absorbance from WT (% change from WT) [5]: -1
Substance: Danio rerio PlxnA3 TM + JM (amino acids 1241-1314), wild type, AraTM construct L1274A

other: % change in AraTM fluorescence/absorbance from WT (% change from WT) [6]: -12
Substance: Danio rerio PlxnA3 TM + JM (amino acids 1241-1314), wild type, AraTM construct M1281T

Second part, the substance before the results:

Substance: Danio rerio PlxnA3 TM + JM (amino acids 1241-1314), wild type, AraTM construct M1281L
other: % change in AraTM fluorescence/absorbance from WT (% change from WT) [1]: 23

Substance: Danio rerio PlxnA3 TM + JM (amino acids 1241-1314), wild type, AraTM construct M1281F
other: % change in AraTM fluorescence/absorbance from WT (% change from WT) [2]: -7.2

Substance: Danio rerio PlxnA3 TM + JM (amino acids 1241-1314), wild type, AraTM construct L1277F
other: % change in AraTM fluorescence/absorbance from WT (% change from WT) [4]: -2.3

Substance: Danio rerio PlxnA3 TM + JM (amino acids 1241-1314), wild type, AraTM construct D1302Y
other: % change in AraTM fluorescence/absorbance from WT (% change from WT) [7]: 85

Substance: Danio rerio PlxnA3 TM + JM (amino acids 1241-1314), wild type, AraTM construct L1284A
other: % change in AraTM fluorescence/absorbance from WT (% change from WT) [8]: -7.6
